Source: IntAct's records for PubMed 16263329

B1: Anti-sigma-F factor antagonist RsfB (Mycobacterium tuberculosis (strain ATCC 25618 / P9WGE1 (parent)
chain: MSAPDSITVTVADHNGVAVLSIGGEIDLITAAALEEAIGEVVADNPTALVIDLSAVEFLGSVGLKILAATSEKIGQSVKFGVVARGSVTRRPIHLMGLDKTFRLFSTLHDALTGVRGGRIDR
partner: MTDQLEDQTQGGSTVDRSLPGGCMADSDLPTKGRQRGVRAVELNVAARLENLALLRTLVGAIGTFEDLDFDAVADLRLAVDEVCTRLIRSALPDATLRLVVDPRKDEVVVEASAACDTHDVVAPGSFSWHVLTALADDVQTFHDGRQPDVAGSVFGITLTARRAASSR

Variants of: B1
Details: with rsbw_myctu rsbW

Which “effect of a mutation on the interaction” value does the source give for MSAPDSITVTVADHNGVAVLSIGGEIDLITAAALEEAIGEVVADNPTALVIDLSAVEFLGAVGLKILAATSEKIGQSVKFGVVARGSVTRRPIHLMGLDKTFRLFSTLHDALTGVRGGRIDR [S61A] here?
The value was “decreasing interaction”.
